Test results: US20090297501A1

Target: monkey Mpl (monkey)

## hTPO (ligand)
  EC50 (read off the curve) (growth of BaF3-monkey Mpl cells, WST-8) [B]: 10 pM
